The target in experiment [1] is T1, human CD137 expressed on CHO cells (human, UniProt Q07011 18-255).
T1 construct: also called CHO huCD137; CHO human CD137 cells
Description: FMAT/Mirrorball on CHO huCD137 cells. The method, boiled down: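 His-tagged VH molecules bound to CHO cells expressing human PD-1 or human CD137, with CHO parent cells as control, in PBS pH 7.4, 0.1% BSA, 0.05% sodium azide. Read by FMAT on Mirrorball (ex 488/640 nm); binding taken as FL2 median fluorescence intensity of FL5-gated events.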

Experiment [2] has as its target T1, human CD137 expressed on CHO cells. Description: flow cytometry on CHO huCD137 cells. On the technique in general: Flow cytometry measures light scatter and fluorescence of single cells or particles in a stream.
Experiment [3] addresses T2, human PD-1 expressed on CHO cells (human, UniProt Q15116 21-288).
T2 construct: also called CHO huPD1; CHO human PD1 cells
Description: flow cytometry on CHO huPD1 cells.

The target in experiment [4] is T2, human PD-1 expressed on CHO cells. Description: FMAT/Mirrorball on CHO huPD1 cells. As to the method: Binding of His-tagged molecules to CHO human CD137, CHO parent and CHO human PD1 cells was assessed using Fluorescence Microvolume Assay Technology (FMAT). All reagents were prepared in FMAT assay buffer (pH 7.4) containing PBS, 0.1% Bovine Serum Albumin, 0.05% Sodium Azide. […] Fluorescence emission was then measured on the TTP Mirrorball plate reader in the FL2 (502 nm-537 nm) and FL5 (677-800 nm) channels following excitation at 488 nm and 640 nm. Data was gated on FL5 perimeter and peak intensity and the FL2 median mean fluorescence intensity of the gated data used for determination of VH binding. Monovalent CD137 specific Humabody® VH, and trispecific molecules with a CD137 binding arm bound to CHO CD137 expressing cells. Trispecific Humabody® VH, with a PD1 binding arm bound to PD1 expressing cells.

Experiment [5] addresses T3, human CD137-Fc recombinant protein (Acro Biosystems 41B-H5258) (human, UniProt Q07011 24-186).
T3 construct: Bought protein; The Octet paragraph gives no catalogue number for its human CD137-Fc; also called hCD137-Fc; CD137-Fc tagged protein
Description: BLI (Octet RED384), CD137-Fc on Protein G sensor, 1:1 model. As to the method: (§1) Binding kinetics of purified monovalent VH molecules were measured on a ForteBio Octet RED 384 instrument. Human and Rhesus CD137-Fc tagged protein was diluted to 5 μg/ml in kinetics buffer (0.05% Tween, 1×PBS) and coupled to Protein G biosensors (ForteBio cat no. 18-5082) via the Fc tag. VH were serially diluted (typically 1:2 dilution series starting with 200 nM, VH at the highest concentration) and binding to the CD137-Fc-coupled Protein G biosensors measured. Binding kinetics were determined from the (blank subtracted) sensor gram trace using 1:1 binding models and ForteBio Octet Data Analysis 9.0 software. Example kinetic and binding affinity data obtained is shown Table 18 (monovalent VH).
A general note: In BLI a coated tip is dipped into the sample, and binding shifts an interference pattern.

The target in experiment [6] is T4, Rhesus CD137-Fc tagged protein (rhesus, UniProt H9Z8K9 24-186).
T4 construct: extracellular domain; The Octet paragraph gives no catalogue number; also called rhCD137-Fc
The description is as above. The method, then:
as §1

B1: TPP-1010: PD138G7(G109D)-6GS-HSA2-6GS- CD137D -His (bispecific antibody)
chain: EVQLVESGGGVVRPGGSLRLSCAASGFTFDDYAMSWVRQAPGKGLEWVSGITWNGGSTGYADSVKDRFTISRDNAKNSLYLQMNSLRAEDTALYYCVRDKYSYAWSYDDFDIWGQGTMVTVSSGGGGSGGGGSGGGGSGGGGSGGGGSGGGGSEVQLVESGGGLVKPGGSLRLSCAASGFTFSNYNMNWVRQAPGKGLEWVSSISSAGTHIYYADSVKGRFTISRDNAKNSLYLQMNSLRAEDTAVYYCARDPHSTGWYKDFDYWGQGTLVTVSSGGGGSGGGGSGGGGSGGGGSGGGGSGGGGSEVQLVESGGGVVQPGGSLRLSCAASGFTFSNYGMHWVRQAPGKGLEWVAVISNDGNTKTYADSVKGRFTISRDNSKNTLYLQMNSLRAEDTAVYYCAQDETTTVTASYYFDYWGQGTLVTVSSAAAHHHHHH
notes: Single-chain VH fusion (PD-1 VH, HSA VH, CD137 VH), His tag
In the case of B1, the EC50 (commonly the concentration at which the effect is half-maximal) in experiment [1] came out at 0.101 nM; in experiment [2] it was 9.39 nM; in experiment [3], 0.531 nM; in experiment [4], 0.162 nM.

B2: TPP-969: PDA-6GS-HSA2-6GS-172E1-13-His (bispecific antibody)
chain: EVQLVESGGGLVQPGRSLRLSCAASGFTFDDYALHWVRQAPGKDLEWVSGISWNGGSYGYADSVKGRFTISRDNAKNSLYLQMNSLRAEDTALYYCVREKGPGLTGSTADYYGLDAWGQGTMVTVSSGGGGSGGGGSGGGGSGGGGSGGGGSGGGGSEVQLVESGGGLVKPGGSLRLSCAASGFTFSNYNMNWVRQAPGKGLEWVSSISSAGTHIYYADSVKGRFTISRDNAKNSLYLQMNSLRAEDTAVYYCARDPHSTGWYKDFDYWGQGTLVTVSSGGGGSGGGGSGGGGSGGGGSGGGGSGGGGSEVQLVESGGGVVQPGGSLRLSCAASGFTFSNYGMHWVRQAPGKGLEWVAVISNDGNTKTYADSVKGRFTISRDNSKNTLYLQMNSLRAEDTAVYYCAQDETTTVTASYYFDYWGQGTLVTVSSAAAHHHHHH
notes: as for B1
As to B2, the values for the concentration giving a half-maximal response (EC50) in experiment [1], in experiment [2] and in experiment [4] were 0.171 nM, 11.6 nM and 0.142 nM, respectively.

B3: TPP-1245 CD137A-6GS-PDA2-6GS-HSA2 (bispecific antibody)
chain: EVQLVESGGGLVQPGGSLRLSCAASGFTLSNYWMNWVRQAPGKGLEWVANINQDGSERYYVDSVKGRFTISRDNAKNSLYLQMNSLRAEDTAVYYCARGGEGYGVDHYGLDVSGQGTTVTVSSGGGGSGGGGSGGGGSGGGGSGGGGSGGGGSEVQLVESGGGVVRPGGSLRLSCAASGFTFDDYAMSWVRQAPGKGLEWVSGITWNAGSTGYADSVKGRFTISRDNAKNSLYLQMNSLRAEDTALYYCVRDKYSYAWSYDDFDIWGQGTMVTVSSGGGGSGGGGSGGGGSGGGGSGGGGSGGGGSEVQLVESGGGLVKPGGSLRLSCAASGFTFSNYNMNWVRQAPGKGLEWVSSISSAGTHIYYADSVKGRFTISRDNAKNSLYLQMNSLRAEDTAVYYCARDPHSTGWYKDFDYWGQGTLVTVSS
B3: the EC50 in experiment [2] was 4.4 nM; in experiment [3], 183 nM.

B4: TPP-1290 PD138G7(G109D)-6GS-CD137A-6GS-HSA2 (bispecific antibody)
chain: EVQLVESGGGVVRPGGSLRLSCAASGFTFDDYAMSWVRQAPGKGLEWVSGITWNGGSTGYADSVKDRFTISRDNAKNSLYLQMNSLRAEDTALYYCVRDKYSYAWSYDDFDIWGQGTMVTVSSGGGGSGGGGSGGGGSGGGGSGGGGSGGGGSEVQLVESGGGLVQPGGSLRLSCAASGFTLSNYWMNWVRQAPGKGLEWVANINQDGSERYYVDSVKGRFTISRDNAKNSLYLQMNSLRAEDTAVYYCARGGEGYGVDHYGLDVSGQGTTVTVSSGGGGSGGGGSGGGGSGGGGSGGGGSGGGGSEVQLVESGGGLVKPGGSLRLSCAASGFTFSNYNMNWVRQAPGKGLEWVSSISSAGTHIYYADSVKGRFTISRDNAKNSLYLQMNSLRAEDTAVYYCARDPHSTGWYKDFDYWGQGTLVTVSS
As to B4, the EC50 in experiment [2] was 4.45 nM; in experiment [3] it was 22.7 nM.

B5: TPP-972: CD137A-6GS-PDA-6GS-HSA2-His (bispecific antibody)
chain: EVQLVESGGGLVQPGGSLRLSCAASGFTLSNYWMNWVRQAPGKGLEWVANINQDGSERYYVDSVKGRFTISRDNAKNSLYLQMNSLRAEDTAVYYCARGGEGYGVDHYGLDVSGQGTTVTVSSGGGGSGGGGSGGGGSGGGGSGGGGSGGGGSEVQLVESGGGLVQPGRSLRLSCAASGFTFDDYALHWVRQAPGKDLEWVSGISWNGGSYGYADSVKGRFTISRDNAKNSLYLQMNSLRAEDTALYYCVREKGPGLTGSTADYYGLDAWGQGTMVTVSSGGGGSGGGGSGGGGSGGGGSGGGGSGGGGSEVQLVESGGGLVKPGGSLRLSCAASGFTFSNYNMNWVRQAPGKGLEWVSSISSAGTHIYYADSVKGRFTISRDNAKNSLYLQMNSLRAEDTAVYYCARDPHSTGWYKDFDYWGQGTLVTVSSAAAHHHHHH
notes: Single-chain VH fusion (CD137 VH, PD-1 VH, HSA VH), His tag
Turning to B5, the EC50 in experiment [1] was found to be 0.0533 nM; in experiment [3], 33 nM; in experiment [4], 0.15 nM.

B6: TPP-1293 (PDBlocker1.92-6GS- CD137A -6GS-HSA2) (bispecific antibody)
chain: EVQLVESGGGLVKPGGSLRLSCAASGFTFSDESMTWMRQAPGKGLEWVSYISSGGGVKFYADSVKGRFTISRDNAKNSLYLQMNSLRAEDTAVYYCAREAPLRLGESPHDAFDISGQGTMVTVSSGGGGSGGGGSGGGGSGGGGSGGGGSGGGGSEVQLVESGGGLVQPGGSLRLSCAASGFTLSNYWMNWVRQAPGKGLEWVANINQDGSERYYVDSVKGRFTISRDNAKNSLYLQMNSLRAEDTAVYYCARGGEGYGVDHYGLDVSGQGTTVTVSSGGGGSGGGGSGGGGSGGGGSGGGGSGGGGSEVQLVESGGGLVKPGGSLRLSCAASGFTFSNYNMNWVRQAPGKGLEWVSSISSAGTHIYYADSVKGRFTISRDNAKNSLYLQMNSLRAEDTAVYYCARDPHSTGWYKDFDYWGQGTLVTVSS
B6: the EC50 in experiment [3] was determined as 44.8 nM.

B7: TPP-1247 CD137A-6GS-HSA3-6GS-PD138G7(G109D) (bispecific antibody)
chain: EVQLVESGGGLVQPGGSLRLSCAASGFTLSNYWMNWVRQAPGKGLEWVANINQDGSERYYVDSVKGRFTISRDNAKNSLYLQMNSLRAEDTAVYYCARGGEGYGVDHYGLDVSGQGTTVTVSSGGGGSGGGGSGGGGSGGGGSGGGGSGGGGSEVQLLESGGGLVKPGGSLRLSCAASGFTVSSYTMNWVRQAPGKGLEWVSSISSSGRYIYYADSVKGRFTISRDNAKNSLYLQMNSLRAEDTAVYYCARDPRMVGNPHEFDIWGQGTMVTVSSGGGGSGGGGSGGGGSGGGGSGGGGSGGGGSEVQLVESGGGVVRPGGSLRLSCAASGFTFDDYAMSWVRQAPGKGLEWVSGITWNGGSTGYADSVKDRFTISRDNAKNSLYLQMNSLRAEDTALYYCVRDKYSYAWSYDDFDIWGQGTMVTVSS
Regarding B7, the EC50 in experiment [2] is 3.39 nM; in experiment [3], 25.4 nM.

B8: TPP-1246 CD137A-6GS-HSA2-6GS-PD138G7(G109D) (bispecific antibody)
chain: EVQLVESGGGLVQPGGSLRLSCAASGFTLSNYWMNWVRQAPGKGLEWVANINQDGSERYYVDSVKGRFTISRDNAKNSLYLQMNSLRAEDTAVYYCARGGEGYGVDHYGLDVSGQGTTVTVSSGGGGSGGGGSGGGGSGGGGSGGGGSGGGGSEVQLVESGGGLVKPGGSLRLSCAASGFTFSNYNMNWVRQAPGKGLEWVSSISSAGTHIYYADSVKGRFTISRDNAKNSLYLQMNSLRAEDTAVYYCARDPHSTGWYKDFDYWGQGTLVTVSSGGGGSGGGGSGGGGSGGGGSGGGGSGGGGSEVQLVESGGGVVRPGGSLRLSCAASGFTFDDYAMSWVRQAPGKGLEWVSGITWNGGSTGYADSVKDRFTISRDNAKNSLYLQMNSLRAEDTALYYCVRDKYSYAWSYDDFDIWGQGTMVTVSS
As for B8, the concentration giving a half-maximal response (EC50) in experiment [2] came to 2.48 nM; in experiment [3], 20.5 nM.

B9: 003BB172-E01-3 (VHH)
VHH: EVQLVESGGGLVQPGGSLRLSCAASGFTFSNYGMHWVRQAPGKRLEWVAVISNDGNTKTYADSVKGRFTISRDNSKNMLYLQMNSLRTEDTAVYYCAQDETTTVTASYYFDYWGQGTLVTVSS
notes: Human VH single domain antibody, monovalent
With B9, the EC50 in experiment [1] was determined as 1.06 nM. Moreover, in experiment [5], the Kd (as a rule, the concentration at which binding is half-saturated) is 24.5 nM; the koff (in general, the first-order rate constant of dissociation) was found to be 0.00161 s⁻¹; the kon (commonly a measure of how fast the partners come together) came to 66000 M⁻¹ s⁻¹. In experiment [6], this molecule returned a Kd of 24.8 nM, a koff of 0.00157 s⁻¹ and a kon of 55300 M⁻¹ s⁻¹.

B10: 003BB172-E01-4 (VHH)
VHH: EVQLVESGGGLVQPGGSLRLSCAASGFTFSNYGMHWVRQAPGKGLEWVAVISNDGNTKTYADSVKGRFTISRDNSKNTLYLQMTSLRTEDTAVYYCAQDETTTVTASYYFDYWGQGTLVTVSS
notes: as for B9
As to B10, in experiment [1], the EC50 was found to be 1.33 nM. Also, in experiment [5], the Kd came out at 25.7 nM, the koff is 0.00184 s⁻¹ and the kon came out at 71600 M⁻¹ s⁻¹. In experiment [6], this molecule registered a Kd of 32.2 nM, a koff of 0.00216 s⁻¹ and a kon of 67100 M⁻¹ s⁻¹.

Source of the values: patent US20220220215A1 (CRESCENDO BIOLOGICS, published 2022).
